Source: patent publication US20120316071A1 (published 2012)

Experiments:
[1] = target: T1, Recombinant Human DLL4 (R&D Systems Cat#1506-D4/CF) (human, UniProt Q9NR61 27-524); experiment: ECL (MSD) binding assay, Fab on immobilized recombinant human DLL4
T1 construct: also called rHuman DLL4; delta-like protein 4

[2] = target: T1, Recombinant Human DLL4 (R&D Systems …); experiment: ECL (MSD) multispot binding assay, Fab on immobilized recombinant human DLL4
[3] = target: T2, Recombinant Human DLL4 (delta-like protein 4) (human, UniProt Q9NR61 27-524); experiment: ELISA, DLL4 coated on plate; Fab at 100 (head prints µM, text says nM)
T2 construct: Bought recombinant protein (R&D Systems Cat#1506-D4/CF); also called rHuman DLL4; Delta-like 4

[4] = target: T2, Recombinant Human DLL4 (delta-like …); experiment: ELISA, DLL4 coated on plate; Fab at 0.05 (head prints µM, text says nM)
[5] = target: T2, Recombinant Human DLL4 (delta-like …); experiment: ELISA, DLL4 coated on plate; Fab at 0.14 (head prints µM, text says nM)
[6] = target: T2, Recombinant Human DLL4 (delta-like …); experiment: ELISA, DLL4 coated on plate; Fab at 0.41 (head prints µM, text says nM)
[7] = target: T2, Recombinant Human DLL4 (delta-like …); experiment: ELISA, DLL4 coated on plate; Fab at 1.23 (head prints µM, text says nM)
[8] = target: T2, Recombinant Human DLL4 (delta-like …); experiment: ELISA, DLL4 coated on plate; Fab at 3.70 (head prints µM, text says nM)
[9] = target: T2, Recombinant Human DLL4 (delta-like …); experiment: ELISA, DLL4 coated on plate; Fab at 11.11 (head prints µM, text says nM)
[10] = target: T2, Recombinant Human DLL4 (delta-like …); experiment: ELISA, DLL4 coated on plate; Fab at 33.33 (head prints µM, text says nM)
[11] = target: T3, Recombinant Human DLL4 (R&D Systems Cat#1506-D4/CF) (human, UniProt Q9NR61 27-524); experiment: 96-well plate ECL, DLL4 coated
T3 construct: bought recombinant protein; also called rHuman DLL4; delta-like protein 4

Row | ECL Signal/Blank [2] | ELISA signal [3] | ELISA signal [4] | ELISA signal [5] | ELISA signal [6] | ELISA signal [7] | ELISA signal [8] | ELISA signal [9] | ELISA signal [10] | Binder | further results
1 | 49.2 | – | – | – | – | – | – | – | – | Fab VH5-51_IGHD5-18*01>3_IGHJ4*01 G100K/G104T (KT) & V3-4_IGLJ1*01 (Fab, V domains shown, Tested as Fab; Fabs were expressed in E. coli from plasmid A (heavy chain CH1, His6 and Flag tags) and plasmid E (lambda CL); also called H:KT & L:wt) VH: EVQLVQSGAEVKKPGESLKISCKGSGYSFTSYWIGWVRQMPGKGLEWMGIIYPGDSDTRYSPSFQGQVTISADKSISTAYLQWSSLKASDTAMYYCARRKYSYTYDYFDYWGQGTLVTVSS VL: QTVVTQEPSFSVSPGGTVTLTCGLSSGSVSTSYYPSWYQQTPGQAPRTLIYSTNTRSSGVPDRFSGSILGNKAALTITGAQADDESDYYCVLYMGSGISYVFGTGTKVTVL | ECL signal [1]: 588
2 | – | 0.34 | 0.02 | 0.03 | 0.02 | 0.03 | 0.03 | 0.07 | 0.19 | Fab VH5-51_IGHD5-18*01>3_IGHJ4*01 G100K/G104T G24T/S28R/G35V (H:KT TRV) & V3-4_IGLJ1*01 V91L/S96P (L:LP) (Fab, V domains shown, Tested as a Fab made in E. coli; also called H:KT TRV & L:LP) VH: EVQLVQSGAEVKKPGESLKISCKTSGYRFTSYWIVWVRQMPGKGLEWMGIIYPGDSDTRYSPSFQGQVTISADKSISTAYLQWSSLKASDTAMYYCARRKYSYTYDYFDYWGQGTLVTVSS VL: QTVVTQEPSFSVSPGGTVTLTCGLSSGSVSTSYYPSWYQQTPGQAPRTLIYSTNTRSSGVPDRFSGSILGNKAALTITGAQADDESDYYCLLYMGPGISYVFGTGTKVTVL | –
3 | – | 0.16 | 0.01 | 0 | 0.01 | 0.01 | 0.03 | 0.04 | 0.08 | Fab VH5-51_IGHD5-18*01>3_IGHJ4*01 G100K/G104T G24T/S28R/G35V (H:KT TRV) & V3-4_IGLJ1*01 (Fab, V domains shown, Tested as a Fab made in E. coli; also called H:KT TRV & L:wt; Wildtype (light chain)) VH: EVQLVQSGAEVKKPGESLKISCKTSGYRFTSYWIVWVRQMPGKGLEWMGIIYPGDSDTRYSPSFQGQVTISADKSISTAYLQWSSLKASDTAMYYCARRKYSYTYDYFDYWGQGTLVTVSS VL: QTVVTQEPSFSVSPGGTVTLTCGLSSGSVSTSYYPSWYQQTPGQAPRTLIYSTNTRSSGVPDRFSGSILGNKAALTITGAQADDESDYYCVLYMGSGISYVFGTGTKVTVL | –
4 | 55 | – | – | – | – | – | – | – | – | Fab VH5-51_IGHD5-18*01>3_IGHJ4*01 G100K/G104T S56A & V3-4_IGLJ1*01 (Fab, V domains shown, Tested as Fab; CH1 with His6/Flag tags (plasmid A) and lambda CL (plasmid E) come from the expression vectors) VH: EVQLVQSGAEVKKPGESLKISCKGSGYSFTSYWIGWVRQMPGKGLEWMGIIYPGDADTRYSPSFQGQVTISADKSISTAYLQWSSLKASDTAMYYCARRKYSYTYDYFDYWGQGTLVTVSS VL: QTVVTQEPSFSVSPGGTVTLTCGLSSGSVSTSYYPSWYQQTPGQAPRTLIYSTNTRSSGVPDRFSGSILGNKAALTITGAQADDESDYYCVLYMGSGISYVFGTGTKVTVL | –
5 | – | 0.69 | 0.02 | 0.02 | 0.01 | 0.03 | 0.06 | 0.17 | 0.35 | Fab VH5-51_IGHD5-18*01>3_IGHJ4*01 G100K/G104T G24T/S28R/G35V (H:KT TRV) & V3-4_IGLJ1*01 V91L/S96P S52G (Fab, V domains shown, Tested as a Fab made in E. coli; also called H:KT TRV & L:LP S52G) VH: EVQLVQSGAEVKKPGESLKISCKTSGYRFTSYWIVWVRQMPGKGLEWMGIIYPGDSDTRYSPSFQGQVTISADKSISTAYLQWSSLKASDTAMYYCARRKYSYTYDYFDYWGQGTLVTVSS VL: QTVVTQEPSFSVSPGGTVTLTCGLSSGSVSTSYYPSWYQQTPGQAPRTLIYGTNTRSSGVPDRFSGSILGNKAALTITGAQADDESDYYCLLYMGPGISYVFGTGTKVTVL | –
6 | – | 0.24 | 0.02 | 0.02 | 0.03 | 0.03 | 0.03 | 0.06 | 0.12 | Fab VH5-51_IGHD5-18*01>3_IGHJ4*01 G100K/G104T G24T/S28R/G35V (H:KT TRV) & V3-4_IGLJ1*01 V91L/S96P S52M (Fab, V domains shown, Tested as a Fab made in E. coli; also called H:KT TRV & L:LP S52M) VH: EVQLVQSGAEVKKPGESLKISCKTSGYRFTSYWIVWVRQMPGKGLEWMGIIYPGDSDTRYSPSFQGQVTISADKSISTAYLQWSSLKASDTAMYYCARRKYSYTYDYFDYWGQGTLVTVSS VL: QTVVTQEPSFSVSPGGTVTLTCGLSSGSVSTSYYPSWYQQTPGQAPRTLIYMTNTRSSGVPDRFSGSILGNKAALTITGAQADDESDYYCLLYMGPGISYVFGTGTKVTVL | –
7 | 102 | – | – | – | – | – | – | – | – | Fab VH5-51_IGHD5-18*01>3_IGHJ4*01 G100K/G104T T58A & V3-4_IGLJ1*01 (Fab, V domains shown, Tested as Fab; CH1 with His6/Flag tags (plasmid A) and lambda CL (plasmid E) come from the expression vectors) VH: EVQLVQSGAEVKKPGESLKISCKGSGYSFTSYWIGWVRQMPGKGLEWMGIIYPGDSDARYSPSFQGQVTISADKSISTAYLQWSSLKASDTAMYYCARRKYSYTYDYFDYWGQGTLVTVSS VL: QTVVTQEPSFSVSPGGTVTLTCGLSSGSVSTSYYPSWYQQTPGQAPRTLIYSTNTRSSGVPDRFSGSILGNKAALTITGAQADDESDYYCVLYMGSGISYVFGTGTKVTVL | –
8 | 4.1 | – | – | – | – | – | – | – | – | Fab VH5-51_IGHD5-18*01>3_IGHJ4*01 G100K/G104T G54A & V3-4_IGLJ1*01 (Fab, V domains shown, Tested as Fab; CH1 with His6/Flag tags (plasmid A) and lambda CL (plasmid E) come from the expression vectors) VH: EVQLVQSGAEVKKPGESLKISCKGSGYSFTSYWIGWVRQMPGKGLEWMGIIYPADSDTRYSPSFQGQVTISADKSISTAYLQWSSLKASDTAMYYCARRKYSYTYDYFDYWGQGTLVTVSS VL: QTVVTQEPSFSVSPGGTVTLTCGLSSGSVSTSYYPSWYQQTPGQAPRTLIYSTNTRSSGVPDRFSGSILGNKAALTITGAQADDESDYYCVLYMGSGISYVFGTGTKVTVL | –
9 | – | – | – | – | – | – | – | – | – | Fab VH1-46_IGHD6-6*01_IGHJ1*01 S102A & L6_IGKJ1*01 (Fab, V domains shown, Fab) VH: QVQLVQSGAEVKKPGASVKVSCKASGYTFTSYYMHWVRQAPGQGLEWMGIINPSGGSTSYAQKFQGRVTMTRDTSTSTVYMELSSLRSEDTAVYYCAREEYASSSAEYFQHWGQGTLVTVSS VL: not shown | fold signal/noise ratio against the parent Fab [11]: ~3 fold
10 | – | – | – | – | – | – | – | – | – | Fab VH1-46_IGHD6-6*01_IGHJ1*01 S103P & L6_IGKJ1*01 (Fab, V domains shown, Fab) VH: QVQLVQSGAEVKKPGASVKVSCKASGYTFTSYYMHWVRQAPGQGLEWMGIINPSGGSTSYAQKFQGRVTMTRDTSTSTVYMELSSLRSEDTAVYYCAREEYSPSSAEYFQHWGQGTLVTVSS VL: not shown | fold signal/noise ratio against the parent Fab [11]: ~3 fold
11 | – | – | – | – | – | – | – | – | – | Fab VH1-46_IGHD6-6*01_IGHJ1*01 S104F & L6_IGKJ1*01 (Fab, V domains shown, Fab) VH: QVQLVQSGAEVKKPGASVKVSCKASGYTFTSYYMHWVRQAPGQGLEWMGIINPSGGSTSYAQKFQGRVTMTRDTSTSTVYMELSSLRSEDTAVYYCAREEYSSFSAEYFQHWGQGTLVTVSS VL: not shown | fold signal/noise ratio against the parent Fab [11]: ≥ 4 fold
